# Assay results taken from patent publication US20040058857A1, “Method of treating cancer” (priority 2003, published 2004).
# Numbered stars: 1 amine (or outer) side, 2 acyl side, 3 side chain; on linkers, the order of the positions; unused ones are H or OH. Square brackets hold non-standard residues; d marks the D form. Peptide text beside a SMILES is read from it. * marks the point of attachment. X1 = COc1cccc2c1C(=O)c1c(O)c3c(c(O)c1C2=O)C[C@@](O)(C(=O)CO)C[C@@H]3OC1CC(N*)C(O)C(C)O1; Glutaryl = O=C(CCCC(=O)[*:2])[*:1]; Hyp = O=C(O)[C@@H]1C[C@@H](O)CN1; Chg = N[C@H](C(=O)O)C1CCCCC1
# Experiments:
# [1] = human, in vivo
# Protocol: (§1) Compound B (as described in Example 2) is a peptide conjugate of doxorubicin (Dox) that is cleaved by PSA at prostate tumor cells to leucine-dox (Leu-dox) and Dox. Thirty-three patients with advanced hormone refractory prostate cancer were treated with Compound B. Nineteen patients were initially treated at escalating dose levels of 20 (n=1), 40 (n=3), 80 (n=4), 160 (n=2), 225 (n=6), and 315 mg/m^2 (n=2) in the phase I portion of the trial. An additional 14 patients were treated with 225 mg/m^2 with prednisone.
# [2] = Clinical trial of Compound B: tolerability and dose limiting toxicity
# Protocol: as §1
# clinical = details: male, human, in vivo, 225 mg/m2
# Protocol: as §1
# [3] = human, in vivo; remark: listed apart in the source
# Protocol: as §1
Structure (SMILES),mean AUC ([1]; 225 mg/m2) [µM·h],patients with dose limiting neutropenia ([2]; 315 mg/m^2 dose level) [patients],tolerability ([2]; 33 patients with advanced hormone refractory prostate cancer),recommended phase II dose ([2]; phase I dose escalation 20-315 mg/m^2) [mg/m^2],AUC (clinical) [µM·h],patients experiencing grade 3 fatigue [3],metabolism in PK studies [1]
"COc1cccc2c1C(=O)c1c(O)c3c(c(O)c1C2=O)C[C@@](O)(C(=O)CO)C[C@@H]3O[C@H]1C[C@H](NC(=O)[C@@H](N)CC(C)C)[C@H](O)[C@H](C)O1 [Leu-Dox, leucine-dox]",4,,,,,,
"COc1cccc2c1C(=O)c1c(O)c3c(c(O)c1C2=O)C[C@@](O)(C(=O)CO)C[C@@H]3OC1CC(NC(=O)[C@H](CC(C)C)NC(=O)[C@H](CO)NC(=O)[C@H](CCC(N)=O)NC(=O)[C@@H](NC(=O)[C@H](CO)NC(=O)[C@H](C)NC(=O)[C@@H]2C[C@@H](O)CN2C(=O)CCCC(=O)O)C2CCCCC2)C(O)C(C)O1 (stereo partly drawn) [Compound B, [N-Glutaryl-(4-trans-L-Hyp)]-Ala-Ser-Chg-Gln-Ser-Leu-Dox] (Glutaryl-[Hyp]AS[Chg]QSL-X1; N-terminus and C-terminus assumed)",,2,generally well tolerated,225,6,two,metabolized to Leu-dox and Dox
